Laboratory results published in patent publication US20200340992, “DNA APTAMER […] BINDING TO ESAT6, AND USE […]” (MD APTUS INC., published 2020).

Key:
[1] = target: ESAT6 (early secretory antigenic target 6 kDa) (Mycobacterium tuberculosis H37Rv, UniProt P9WNK7 P9WNK7:1-95); test: fluorescence of Cy3-aptamer bound to ESAT6 on magnetic beads; 20 mM Tris, 50 mM NaCl, 5 mM KCl, 5 mM MgCl2, pH 8.0; conditions: label: Cy3
Experimental: 400 pmole of ESAT6 was mixed with 10 μL of magnetic beads, and then incubated in 100 μL of a binding buffer (20 mM Tris, 50 mM NaCl, 5 mM KCl, 5 mM MgCl₂, pH 8.0) for 1 hour. To separate unbound ESAT6, washing was performed twice with a binding buffer. Subsequently, the resulting mixture was incubated together with various concentrations of a Cy3-labeled aptamer, and an unbound aptamer was removed by washing. The amount of Cy3-labeled ssDNA aptamer bound to the magnetic beads with ESAT6 immobilized thereon was measured by fluorescence measurement (1420 Victor Multilabel counter, PerkinElmer, USA) by separating only Cy3-labeled ssDNA bound to ESAT6. As a result, as shown in FIG. 3 and Table 2 below, the Kd value of the DNA aptamer having a EG11(44) base sequence was measured.

TB7.7 = target: T1, TB7.7 (UniProt P9WJ11 P9WJ11:1-81); test: electrochemical impedance specificity test; 10 pM protein in PBS
T1 sequence: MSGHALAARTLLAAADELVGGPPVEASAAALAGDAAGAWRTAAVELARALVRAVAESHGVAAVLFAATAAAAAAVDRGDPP
Excerpt: (§1) At this time, each protein was mixed at a concentration of 10 pM with PBS and used for detection.

CFP-10 = CFP-10 (UniProt P9WNK5 P9WNK5:1-100); test: as above
Excerpt: as §1

Sequence of ESAT6 (early secretory antigenic target 6 kDa) (P9WNK7 whole entry, one chain of several): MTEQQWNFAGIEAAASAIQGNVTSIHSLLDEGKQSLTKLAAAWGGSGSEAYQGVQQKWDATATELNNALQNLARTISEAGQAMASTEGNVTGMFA
Sequence of CFP-10 (P9WNK5 whole entry, one chain of several): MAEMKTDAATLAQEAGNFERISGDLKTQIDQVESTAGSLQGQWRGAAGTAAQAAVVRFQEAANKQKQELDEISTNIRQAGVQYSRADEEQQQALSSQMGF

CGAGGTAGCTTACCCGCTTATGTTCACTGTGGGTTGCTGGCTCG (ssDNA) [EG11(44)]
Kd [1]: 31.4 nM

CGAGGTAGCTTACCCGCTTATGTTCACTGTGGGTTGCTGGCTCG (ssDNA) [EG11(44) unlabelled]
binding result (TB7.7): no binding
binding result (CFP-10): no binding
